Test results taken from article PMC8748919, “Dynamics and mechanism of dimer dissociation of photoreceptor UVR8” (Nature Communications, 2022).

Target: the molecule itself
Test: SEC; dimer/monomer state of the purified protein before UV irradiation; 150 mM NaCl, 25 mM Tris-HCl, pH 8.0

Row | Protein | binding result
1 | UVR8 W285K/W233D (receptor, Arabidopsis thaliana, UniProt Q9FN03 1-440, looked up, UVR8, Arabidopsis thaliana; mutant plasmid built on the wild-type plasmid; source: E. coli BL21-DE3, purified (Ni-Sepharose, Source-15Q)) MAEDMAADEVTAPPRKVLIISAGASHSVALLSGDIVCSWGRGEDGQLGHGDAEDRPSPTQLSALDGHQIVSVTCGADHTVAYSQSGMEVYSWGWGDFGRLGHGNSSDLFTPLPIKALHGIRIKQIACGDSHCLAVTMEGEVQSWGRNQNGQLGLGDTEDSLVPQKIQAFEGIRIKMVAAGAEHTAAVTEDGDLYGWGWGRYGNLGLGDRTDRLVPERVTSTGGEKMSMVACGDRHTISVSYSGALYTYGWSKYGQLGHGDLEDHLIPHKLEALSNSFISQISGGKRHTMALTSDGKLYGWGWNKFGQVGVGNNLDQCSPVQVRFPDDQKVVQVSCGWRHTLAVTERNNVFAWGRGTNGQLGIGESVDRNFPKIIEALSVDGASGQHIESSNIDPSSGKSWVSPAERYAVVPDETGLTDGSSKGNGGDISVPQTDVKRVRI | binds
2 | UVR8 W92 single-Trp mutant (receptor, Arabidopsis thaliana, UniProt Q9FN03 1-440, looked up, UVR8, Arabidopsis thaliana; mutant plasmid built on the wild-type plasmid; also called W92F; source: E. coli BL21-DE3, purified (Ni-Sepharose, Source-15Q)) MAEDMAADEVTAPPRKVLIISAGASHSVALLSGDIVCSWGRGEDGQLGHGDAEDRPSPTQLSALDGHQIVSVTCGADHTVAYSQSGMEVYSFGWGDFGRLGHGNSSDLFTPLPIKALHGIRIKQIACGDSHCLAVTMEGEVQSWGRNQNGQLGLGDTEDSLVPQKIQAFEGIRIKMVAAGAEHTAAVTEDGDLYGWGWGRYGNLGLGDRTDRLVPERVTSTGGEKMSMVACGWRHTISVSYSGALYTYGWSKYGQLGHGDLEDHLIPHKLEALSNSFISQISGGWRHTMALTSDGKLYGWGWNKFGQVGVGNNLDQCSPVQVRFPDDQKVVQVSCGWRHTLAVTERNNVFAWGRGTNGQLGIGESVDRNFPKIIEALSVDGASGQHIESSNIDPSSGKSWVSPAERYAVVPDETGLTDGSSKGNGGDISVPQTDVKRVRI | binds
3 | UVR8 W94/337F (receptor, Arabidopsis thaliana, UniProt Q9FN03 1-440, looked up, UVR8, Arabidopsis thaliana; mutant plasmid built on the wild-type plasmid; source: E. coli BL21-DE3, purified (Ni-Sepharose, Source-15Q)) MAEDMAADEVTAPPRKVLIISAGASHSVALLSGDIVCSWGRGEDGQLGHGDAEDRPSPTQLSALDGHQIVSVTCGADHTVAYSQSGMEVYSWGFGDFGRLGHGNSSDLFTPLPIKALHGIRIKQIACGDSHCLAVTMEGEVQSWGRNQNGQLGLGDTEDSLVPQKIQAFEGIRIKMVAAGAEHTAAVTEDGDLYGWGWGRYGNLGLGDRTDRLVPERVTSTGGEKMSMVACGWRHTISVSYSGALYTYGWSKYGQLGHGDLEDHLIPHKLEALSNSFISQISGGWRHTMALTSDGKLYGWGWNKFGQVGVGNNLDQCSPVQVRFPDDQKVVQVSCGFRHTLAVTERNNVFAWGRGTNGQLGIGESVDRNFPKIIEALSVDGASGQHIESSNIDPSSGKSWVSPAERYAVVPDETGLTDGSSKGNGGDISVPQTDVKRVRI | binds
4 | UVR8 R338 mutated to lysine (K) (receptor, Arabidopsis thaliana, UniProt Q9FN03 1-440, looked up, UVR8, Arabidopsis thaliana; mutant plasmid built on the wild-type plasmid; also called R338K; source: E. coli BL21-DE3, purified (Ni-Sepharose, Source-15Q)) MAEDMAADEVTAPPRKVLIISAGASHSVALLSGDIVCSWGRGEDGQLGHGDAEDRPSPTQLSALDGHQIVSVTCGADHTVAYSQSGMEVYSWGWGDFGRLGHGNSSDLFTPLPIKALHGIRIKQIACGDSHCLAVTMEGEVQSWGRNQNGQLGLGDTEDSLVPQKIQAFEGIRIKMVAAGAEHTAAVTEDGDLYGWGWGRYGNLGLGDRTDRLVPERVTSTGGEKMSMVACGWRHTISVSYSGALYTYGWSKYGQLGHGDLEDHLIPHKLEALSNSFISQISGGWRHTMALTSDGKLYGWGWNKFGQVGVGNNLDQCSPVQVRFPDDQKVVQVSCGWKHTLAVTERNNVFAWGRGTNGQLGIGESVDRNFPKIIEALSVDGASGQHIESSNIDPSSGKSWVSPAERYAVVPDETGLTDGSSKGNGGDISVPQTDVKRVRI | binds
5 | UVR8 W39 single-Trp mutant (receptor, Arabidopsis thaliana, UniProt Q9FN03 1-440, looked up, UVR8, Arabidopsis thaliana; mutant plasmid built on the wild-type plasmid; also called W39F; source: E. coli BL21-DE3, purified (Ni-Sepharose, Source-15Q)) MAEDMAADEVTAPPRKVLIISAGASHSVALLSGDIVCSFGRGEDGQLGHGDAEDRPSPTQLSALDGHQIVSVTCGADHTVAYSQSGMEVYSWGWGDFGRLGHGNSSDLFTPLPIKALHGIRIKQIACGDSHCLAVTMEGEVQSWGRNQNGQLGLGDTEDSLVPQKIQAFEGIRIKMVAAGAEHTAAVTEDGDLYGWGWGRYGNLGLGDRTDRLVPERVTSTGGEKMSMVACGWRHTISVSYSGALYTYGWSKYGQLGHGDLEDHLIPHKLEALSNSFISQISGGWRHTMALTSDGKLYGWGWNKFGQVGVGNNLDQCSPVQVRFPDDQKVVQVSCGWRHTLAVTERNNVFAWGRGTNGQLGIGESVDRNFPKIIEALSVDGASGQHIESSNIDPSSGKSWVSPAERYAVVPDETGLTDGSSKGNGGDISVPQTDVKRVRI | binds
6 | UVR8 R286 mutated to lysine (K) (receptor, Arabidopsis thaliana, UniProt Q9FN03 1-440, looked up, UVR8, Arabidopsis thaliana; mutant plasmid built on the wild-type plasmid; also called R286K; source: E. coli BL21-DE3, purified (Ni-Sepharose, Source-15Q)) MAEDMAADEVTAPPRKVLIISAGASHSVALLSGDIVCSWGRGEDGQLGHGDAEDRPSPTQLSALDGHQIVSVTCGADHTVAYSQSGMEVYSWGWGDFGRLGHGNSSDLFTPLPIKALHGIRIKQIACGDSHCLAVTMEGEVQSWGRNQNGQLGLGDTEDSLVPQKIQAFEGIRIKMVAAGAEHTAAVTEDGDLYGWGWGRYGNLGLGDRTDRLVPERVTSTGGEKMSMVACGWRHTISVSYSGALYTYGWSKYGQLGHGDLEDHLIPHKLEALSNSFISQISGGWKHTMALTSDGKLYGWGWNKFGQVGVGNNLDQCSPVQVRFPDDQKVVQVSCGWRHTLAVTERNNVFAWGRGTNGQLGIGESVDRNFPKIIEALSVDGASGQHIESSNIDPSSGKSWVSPAERYAVVPDETGLTDGSSKGNGGDISVPQTDVKRVRI | binds
7 | UVR8 D129 mutated to positive (K) (receptor, Arabidopsis thaliana, UniProt Q9FN03 1-440, looked up, UVR8, Arabidopsis thaliana; mutant plasmid built on the wild-type plasmid; also called D129K; source: E. coli BL21-DE3, purified (Ni-Sepharose, Source-15Q)) MAEDMAADEVTAPPRKVLIISAGASHSVALLSGDIVCSWGRGEDGQLGHGDAEDRPSPTQLSALDGHQIVSVTCGADHTVAYSQSGMEVYSWGWGDFGRLGHGNSSDLFTPLPIKALHGIRIKQIACGKSHCLAVTMEGEVQSWGRNQNGQLGLGDTEDSLVPQKIQAFEGIRIKMVAAGAEHTAAVTEDGDLYGWGWGRYGNLGLGDRTDRLVPERVTSTGGEKMSMVACGWRHTISVSYSGALYTYGWSKYGQLGHGDLEDHLIPHKLEALSNSFISQISGGWRHTMALTSDGKLYGWGWNKFGQVGVGNNLDQCSPVQVRFPDDQKVVQVSCGWRHTLAVTERNNVFAWGRGTNGQLGIGESVDRNFPKIIEALSVDGASGQHIESSNIDPSSGKSWVSPAERYAVVPDETGLTDGSSKGNGGDISVPQTDVKRVRI | binds
